Molecular target: ACK1(h) (human, UniProt Q07912 110-476, limits assumed)
Assay: cell-based or functional assay

ACK1(h), sequence (Q07912 110-476 limits assumed): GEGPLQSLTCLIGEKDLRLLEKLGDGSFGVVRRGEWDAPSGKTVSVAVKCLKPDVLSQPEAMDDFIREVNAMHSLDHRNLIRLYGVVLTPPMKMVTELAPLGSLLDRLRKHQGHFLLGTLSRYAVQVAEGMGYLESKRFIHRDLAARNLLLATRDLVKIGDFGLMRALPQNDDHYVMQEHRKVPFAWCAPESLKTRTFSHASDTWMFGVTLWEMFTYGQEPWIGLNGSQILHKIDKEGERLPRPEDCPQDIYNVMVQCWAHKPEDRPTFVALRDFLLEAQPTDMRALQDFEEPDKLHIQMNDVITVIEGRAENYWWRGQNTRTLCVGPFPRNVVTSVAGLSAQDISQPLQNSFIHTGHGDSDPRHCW

B1: MMI-0400 (peptide)
peptide: KAFAKLAARLYRKALARQLGVAA
- % activity, 100 µM: 95%
